Data published in US20060239998A1.

Key:
[1] = target: Factor VIII (human recombinant FVIII) (human) (UniProt P00451); assay: cell-based or functional assay
[2] = target: human monoclonal antibody BO2C11, FVIII-specific IgG4kappa inhibitory antibody against the C2 domain; assay: surface plasmon resonance
[3] = target: polyclonal antibodies of 6 unrelated patients with haemophilia A and inhibitor towards the C2 domain; assay: immunoprecipitation of radiolabelled C2 domain with patient polyclonal antibodies and protein A Sepharose; Ab 14C12 added at increasing concentration
[4] = target: human monoclonal antibody BO2C11, FVIII-specific IgG4kappa inhibitory antibody against the C2 domain; assay: cell-based or functional assay
[5] = target: BO2C11 surface antibody on the BO2C11 lymphoblastoid B-cell line; assay: flow cytometry on the BO2C11 lymphoblastoid cell line, 1 or 10 µg/ml antibody, anti-mouse IgG-FITC
[6] = target: polyclonal antibodies of the patient from whom BO2C11 was derived; assay: cell-based or functional assay

Factor VIII (human recombinant FVIII) (human), sequence (P00451 20-2351): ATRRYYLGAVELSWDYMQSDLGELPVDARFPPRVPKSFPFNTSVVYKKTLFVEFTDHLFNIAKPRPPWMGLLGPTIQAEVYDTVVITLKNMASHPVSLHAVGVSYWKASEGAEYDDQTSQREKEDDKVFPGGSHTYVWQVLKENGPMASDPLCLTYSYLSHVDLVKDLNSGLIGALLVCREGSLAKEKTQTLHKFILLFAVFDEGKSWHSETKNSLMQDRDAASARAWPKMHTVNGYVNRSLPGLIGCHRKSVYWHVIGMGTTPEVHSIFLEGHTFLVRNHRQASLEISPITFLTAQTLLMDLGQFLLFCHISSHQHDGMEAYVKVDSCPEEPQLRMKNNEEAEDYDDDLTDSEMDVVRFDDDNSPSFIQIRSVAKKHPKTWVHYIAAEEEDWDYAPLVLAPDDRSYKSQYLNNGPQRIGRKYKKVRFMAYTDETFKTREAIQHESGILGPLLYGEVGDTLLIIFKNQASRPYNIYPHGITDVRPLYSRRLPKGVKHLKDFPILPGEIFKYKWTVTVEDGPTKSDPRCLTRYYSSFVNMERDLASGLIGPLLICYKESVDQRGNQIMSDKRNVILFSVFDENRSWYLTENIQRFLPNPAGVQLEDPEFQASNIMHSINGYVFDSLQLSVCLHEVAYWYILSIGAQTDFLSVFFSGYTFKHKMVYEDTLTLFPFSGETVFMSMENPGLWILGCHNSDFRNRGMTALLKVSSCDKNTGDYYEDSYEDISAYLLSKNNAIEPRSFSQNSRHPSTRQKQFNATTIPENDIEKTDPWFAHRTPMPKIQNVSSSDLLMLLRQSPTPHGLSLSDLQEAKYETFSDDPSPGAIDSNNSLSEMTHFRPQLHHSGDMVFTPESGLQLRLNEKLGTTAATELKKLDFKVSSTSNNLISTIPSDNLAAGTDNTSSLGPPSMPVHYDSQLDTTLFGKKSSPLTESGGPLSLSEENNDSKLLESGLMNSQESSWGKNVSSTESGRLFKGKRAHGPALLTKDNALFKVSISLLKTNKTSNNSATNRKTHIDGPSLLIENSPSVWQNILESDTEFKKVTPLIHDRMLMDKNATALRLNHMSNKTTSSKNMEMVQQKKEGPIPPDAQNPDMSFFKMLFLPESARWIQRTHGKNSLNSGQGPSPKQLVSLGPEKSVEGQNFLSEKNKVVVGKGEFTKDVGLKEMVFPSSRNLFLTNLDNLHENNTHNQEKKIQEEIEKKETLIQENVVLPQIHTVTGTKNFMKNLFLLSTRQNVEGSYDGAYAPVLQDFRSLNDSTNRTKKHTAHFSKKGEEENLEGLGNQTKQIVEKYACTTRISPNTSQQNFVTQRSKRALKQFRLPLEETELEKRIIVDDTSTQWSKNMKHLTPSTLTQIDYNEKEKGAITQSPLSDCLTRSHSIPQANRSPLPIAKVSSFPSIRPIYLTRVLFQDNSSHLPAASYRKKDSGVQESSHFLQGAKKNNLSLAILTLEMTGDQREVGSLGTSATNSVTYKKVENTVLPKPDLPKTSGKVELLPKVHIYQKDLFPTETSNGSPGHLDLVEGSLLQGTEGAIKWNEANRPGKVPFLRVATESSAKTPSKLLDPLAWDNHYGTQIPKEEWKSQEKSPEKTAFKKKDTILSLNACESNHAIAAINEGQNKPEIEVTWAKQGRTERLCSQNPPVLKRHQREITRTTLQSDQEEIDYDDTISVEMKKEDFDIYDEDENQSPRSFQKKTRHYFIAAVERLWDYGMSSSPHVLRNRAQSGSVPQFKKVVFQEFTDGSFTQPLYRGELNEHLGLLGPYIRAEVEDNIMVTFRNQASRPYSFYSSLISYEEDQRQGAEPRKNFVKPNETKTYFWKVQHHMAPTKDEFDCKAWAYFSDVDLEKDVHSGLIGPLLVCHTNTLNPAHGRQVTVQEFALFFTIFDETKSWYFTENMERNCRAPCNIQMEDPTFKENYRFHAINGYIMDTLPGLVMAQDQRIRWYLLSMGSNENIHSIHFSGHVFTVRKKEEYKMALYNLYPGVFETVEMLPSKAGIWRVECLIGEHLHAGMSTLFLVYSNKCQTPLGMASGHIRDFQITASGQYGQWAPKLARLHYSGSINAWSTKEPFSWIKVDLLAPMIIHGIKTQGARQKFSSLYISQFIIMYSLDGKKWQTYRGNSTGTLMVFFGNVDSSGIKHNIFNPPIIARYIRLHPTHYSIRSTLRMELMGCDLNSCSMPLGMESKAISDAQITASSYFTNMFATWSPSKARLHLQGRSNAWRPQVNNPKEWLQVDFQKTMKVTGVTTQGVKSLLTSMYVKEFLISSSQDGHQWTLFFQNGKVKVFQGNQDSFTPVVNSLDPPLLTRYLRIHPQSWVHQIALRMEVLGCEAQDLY

B1: human monoclonal antibody BO2C11, FVIII-specific IgG4kappa inhibitory antibody against the C2 domain (antibody, from another filing, V domains shown)
VH: QVQLVQSGAEVKKPGASVKVSCKVSGYTLTELPVHWVRQAPGKGLEWVGSFDPESGESIYAREFQGSVTMTADTSTDIAYMELSSLRSDDTAVYYCAVPDPDAFDIWGQGTMVTVSS
VL: EIALTQSPGTLSLSPGERATLSCRASQSFSSSYLAWYQQKPGQAPRLLIYGASTRATGIPDRFSGSGSGTDFTLTISRLEPEDFAVYYCQKYGTSAITFGQGTRLEIK
inhibition of FVIII procoagulant activity in FVIII-/- mice (% inhibition at 0.5 µg BO2C11) [1]: 98
inhibition of FVIII-dependent substrate conversion (Faktor VIII chromogen test) (% inhibition at 0.1 µg/ml BO2C11) [1]: 100

B2: anti-idiotypic antibody Ab 14C12 obtained from cell line 14C12 (LMBP 5878CB) (antibody, V domains shown)
VH: EVQLQQSGPELVKPGASVKLSCKASGYTFTSSVMHWLKQKSGQGLEWIGYINPYNDGTKYNEKFTAKATLTSDKSSSTVYMELSGLTSEDFAVYYCARSGGLLRGYWYFDVWGAGTTVTVSS
VL: DLVLTQSPATLSVTPGDSVSLSCRASQDITNTLHWYHQKSHESPRLLIKYVSQSISGIPSRFSGSGSGTVFTLSINSVETEDFGVYFCQQSTSWPYTFGGGTKLEIKR
koff [2]: 1e-05 s⁻¹
percent neutralisation [3]: 50%
in vivo neutralisation of BO2C11-mediated FVIII inhibition in FVIII-/- mice (% neutralisation at equimolar ratio) [4]: 50
neutralisation of BO2C11 inhibitory capacity (chromogenic assay) ([4]; scale: % neutralisation at a '11' molar ratio): 50
in vivo neutralisation of BO2C11-mediated FVIII inhibition in FVIII-/- mice ([4]; scale: molar excess of Ab 14C12 over BO2C11 for full neutralisation): 3.5
percent of cells positive [5]: 68%

B3: anti-idiotypic antibody Ab 14C12 obtained from cell line 14C12 (LMBP 5878CB) (antibody, V domains shown)
VH: EVQLQQSGPELVKPGASVKLSCKASGYTFTSSVMHWLKQKSGQGLEWIGYINPYNDGTKYNEKFTAKATLTSDKSSSTVYMELSGLTSEDFAVYYCARSGGLLRGYWYFDVWGAGTTVTVSSAKTTAPSVYPLVPGC
VL: DLVLTQSPATLSVTPGDSVSLSCRASQDITNTLHWYHQKSHESPRLLIKYVSQSISGIPSRFSGSGSGTVFTLSINSVETEDFGVYFCQQSTSWPYTFGGGTKLEIKRADAAPTVSIFPPSSE
neutralisation of polyclonal anti-FVIII antibodies (chromogenic assay) (% neutralisation) [6]: < 60
